Reference: US20250186597A1, “TARGETED IMMUNE ACTIVATION WITH IL-18 IMMUNOCYTOKINES” (BRIGHT PEAK THERAPEUTICS AG, priority 2023, published 2025)
Changes are numbered by the printed parent chain. Names may count otherwise.

B1: C148: IL-18 polypeptide: F2A, V11I, C38A, K53A, C76A, C127A (protein)
chain: YAGKLESKLSIIRNLNDQVLFIDQGNRPLFEDMTDSDARDNAPRTIFIISMYADSQPRGMAVTISVKCEKISTLSAENKIISFKEMNPPDNIKDTKSDIIFFQRSVPGHDNKMQFESSSYEGYFLAAEKERDLFKLILKKEDELGDRSIMFTVQNED
B2: C149: IL-18 polypeptide: V11I, E31A, C38A, K53A, C76A, C127A (protein)
chain: B1 chain with A2F, E31A
B3: C150: IL-18 polypeptide: V11I, T34A, C38A, K53A, C76A, C127A (protein)
chain: B1 chain with A2F, T34A
B4: C151: IL-18 polypeptide: V11I, D35A, C38A, K53A, C76A, C127A (protein)
chain: B1 chain with A2F, D35A
B5: C152: IL-18 polypeptide: V11I, S36A, C38A, K53A, C76A, C127A (protein)
chain: B1 chain with A2F, S36A
B6: C153: IL-18 polypeptide: V11I, D37A, C38A, K53A, C76A, C127A (protein)
chain: B1 chain with A2F, D37A
B7: C154: IL-18 polypeptide: V11I, E31A, D37A, C38A, K53A, C76A, C127A (protein)
chain: B1 chain with A2F, E31A, D37A
B8: C155: IL-18 polypeptide: V11I, C38A, D40A, K53A, C76A, C127A (protein)
chain: B1 chain with A2F, D40A
B9: C156: IL-18 polypeptide: V11I, C38A, N41A, K53A, C76A, C127A (protein)
chain: B1 chain with A2F, N41A
B10: C157: IL-18 polypeptide: V11I, C38A, K53A, C76A, C127A, D132A (protein)
chain: B1 chain with A2F, D132A
B11: C158: IL-18 polypeptide: V11I, C38A, K53A, C76A, G108A, C127A (protein)
chain: B1 chain with A2F, G108A
B12: C159: IL-18 polypeptide: V11I, C38A, K53A, C76A, H109A, C127A (protein)
chain: B1 chain with A2F, H109A
B13: C160: IL-18 polypeptide: V11I, C38A, K53A, C76A, D110A, C127A (protein)
chain: B1 chain with A2F, D110A
B14: C161: IL-18 polypeptide: K8R, V11I, C38A, C76A, Q103E, C127A (protein)
chain: B1 chain with A2F, K8R, A53K, Q103E
B15: C162: IL-18 polypeptide: K8E, V11I, C38A, C76A, Q103R, C127A (protein)
chain: B1 chain with A2F, K8E, A53K, Q103R
B16: C163: IL-18 polypeptide: V11I, C38A, C76A, Q103K, C127A (protein)
chain: B1 chain with A2F, A53K, Q103K
B17: C164: IL-18 polypeptide: V11I, C38A, S55H, C76A, C127A (protein)
chain: B1 chain with A2F, A53K, S55H
B18: 34 (protein)
chain: B1 chain with A2F, E6K, I11V, A38C, S55A, A76C, A127C
B19: C165: IL-18 polypeptide: V11I, C38A, S55R, C76A, C127A (protein)
chain: B1 chain with A2F, A53K, S55R

Key:
[1] = system: NK-92 cells; experiment: IFNγ induction cellular assay in NK-92 cells (Example 4, used in Example 22C); type: cell-based, human; conditions: IFNg stimulation in NK92 cells
Procedure: The ability of immunocytokines and IL-18 polypeptides provided herein are assessed for ability to induce IFN[…] in a cellular assay according to the protocol below.
The NK cell line NK-92 derived from a patient with lymphoma (ATCC® CRL-2407™) is cultured in aMEM medium supplemented with 20% FCS, Glutamax, 25 µM B-mercaptoethanol, and 100 IU/mL of recombinant human IL-2.
On the day of experiment, cells are harvested and washed with aMEM medium without IL-2 and containing 1 ng/mL of recombinant human IL-12. After counting, cells are seeded at 100,000 cells/well in a 384 well titer plate and incubated at 37° C./5% CO2. Sixteen 4-fold serial dilutions of IL-18 analytes are prepared in aMEM medium, and 1 ng/mL of IL-12 were added to the NK-92 cells. Final IL-18 analyte concentrations range from 56 nM to 5×10^−5 pM.
After incubating the cells for 16-20 hr at 37° C./5% CO2, 5 μL of supernatant is carefully transferred to a 384 microwell OptiPlate. IFNγ levels are measured using a human IFNγ AlphaLISA Assay Kit. Briefly, 10 μL of 2.5× AlphaLISA Anti-IFNγ acceptor beads and biotinylated antibody anti-IFNγ mix are added to the 5 μL of NK-92 supernatants. The mixtures are incubated for 1 hr at room temperature with shaking. Under subdued light, 2.5 μL of 2× streptavidin (SA) donor beads are pipetted into each well, and the wells are incubated for 30 min at room temperature with shaking. AlphaLISA signals are then measured on an EnSpire™ plate reader using 680 nm and 615 nm as excitation and emission wavelengths, respectively. Half maximal effective concentrations (EC50) are calculated based on a variable slope and four parameter analysis using GraphPad PRISM software.
(§1) The experiments described in Example 4 for determination of IFNg stimulation in NK92 cells (and inhibition by IL-18 BP) were performed substantially as described on IL-18 polypeptides in order to assess their activities and their suitability for incorporation into immunocytokine compositions. It is expected that the IL-18 polypeptides provided below would behave analagously to C086 (SEQ ID NO: 30) when incorporated into an immunocytokine composition as those otherwise provided herein.

[2] = target: T1, human IL-18BP (Homo sapiens, UniProt O95998); experiment: IL-18BP binding alphaLISA assay (Example 4, used in Example 22B); conditions: IL-18BP AlphaLISA
T1 construct: His
T1 sequence (O95998 31-194): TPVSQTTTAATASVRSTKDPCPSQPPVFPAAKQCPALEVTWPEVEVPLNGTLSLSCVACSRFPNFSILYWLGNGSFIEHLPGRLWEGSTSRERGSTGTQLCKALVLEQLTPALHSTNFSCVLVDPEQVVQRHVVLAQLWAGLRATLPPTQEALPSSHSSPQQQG
Procedure: A human IL-18BP AlphaLISA Assay Kit is used to determine the binding affinity of each immunocytokine and IL-18 variant for IL-18BP, which detected the presence of free form IL-18BP.
Sixteen three-fold serial dilutions of IL-18 analytes are prepared in aMEM medium supplemented with 20% FCS, Glutamax, and 25 µM β-mercaptoethanol in the presence of 5 ng/mL of His-tagged human IL-18BP. Final IL-18 analytes concentration range from 2778 nM to […].
After 1 hr incubation at room temperature, free IL-18BP levels are measured using a […]. In a 384 well OPTIplate, 5 μL of 5× Anti-IL-18BP acceptor beads are added to 7.5 μL of an IL-18/IL-18BP mix. After 30 min incubation at room temperature with shaking, 5 μL of biotinylated Anti-IL-18BP antibodies are added to each well. The plate is incubated further for 1 hr at room temperature. Under subdued light, 12.5 μL of 2× streptavidin (SA) donor beads are pipetted into each well, and the wells are incubated with shaking for an additional 30 min at room temperature. The AlphaLisa signal is then measured on an Enspire plate reader with 680 and 615 nm as excitation and emission wavelengths, respectively. The dissociation constant (KD) is calculated based on a variable slope, four parameter analysis using GraphPad PRISM software.
An IL-18 binding protein AiphaLISA experiment substantially as described in Example 4 was performed on IL-18 polypeptide which can be incorporated into immunocytokine compositions as provided herein to assess ability to bind to IL-181BP. It is expected that the IL-18 polypeptides provided below would behave analogously to C086 (SEQ ID NO: 30) when incorporated into an immunocytokine composition as those otherwise provided herein.

[3] = system: NK-92 cells; experiment: IL-18 binding protein inhibition cellular assay in NK-92 cells (Example 4, used in Example 22C); type: cell-based, human; conditions: inhibition by IL-18BP of IFNg stimulation in NK92 cells
Procedure: The NK cell line NK-92 derived from a patient with lymphoma (ATCC® CRL-2407™) is cultured in aMEM medium supplemented with 20% FCS-Glutamax, 25 µM B-mercaptoethanol, and 100 IU/mL of recombinant human IL-2.
On the day of experiment, cells are harvested and washed with aMEM medium without IL-2 and containing 1 ng/mL of recombinant human IL-12. After counting, the cells are seeded at 100,000 cells/well in a 384 well titer plate and incubated at 37° C./5% CO2. Sixteen 2-fold serial dilutions of Fc-fused human IL-18 binding protein isoform a (IL-18BPa) are prepared in aMEM medium. 1 ng/mL of IL-12 containing 2 nM of each IL-18 polypeptide variant is added to the NK-92 cells. The final IL-18 analyte concentration is 1 nM, and the final IL-18BPa concentration ranged from 566 nM to […].
After incubating the cells for 16-20 hr at 37° C./5% CO2, 5 μL of the supernatant is carefully transferred to a 384 microwell OptiPlate. IFNγ levels are measured using a human IFNγ AlphaLISA Assay Kit. Briefly, 10 μL of 2.5× AlphaLISA anti-IFNγ acceptor beads and biotinylated antibody anti-IFNγ mix are added to 5 μL of NK-92 supernatants. The mixtures are incubated for 1 hr at room temperature with shaking. Under subdued light, 2.5 μL of 2×SA donor beads are pipetted in each well and incubated for 30 min at room temperature with shaking. AlphaLISA signals are then measured on an EnSpire™ plate reader using 680 nm and 615 nm as excitation and emission wavelengths, respectively. Half maximal inhibitory concentrations (IC50) are calculated based on a variable slope and four parameter analysis using GraphPad PRISM software.
as §1

Row | Molecule | EC50 [1] [nM] | Kd [2] [nM] | IC50 [3] [nM]
1 | B1 | 0.256 | 57.2 | 5.05
2 | B2 | 0.187 | 0.64 | 1.17
3 | B3 | 0.015 | 1.24 | 21.3
4 | B4 | 0.061 | 2.88 | 3.62
5 | B5 | 0.033 | 1.12 | 7.85
6 | B6 | 0.175 | 4.55 | 2.22
7 | B7 | 0.062 | 2.12 | 3.71
8 | B8 | 0.067 | 0.74 | 3.23
9 | B9 | 0.558 | 18.5 | 0.681
10 | B10 | 0.056 | 13.7 | 6.08
11 | B11 | 0.073 | 1.24 | 3.98
12 | B12 | 0.123 | 0.55 | 1.81
13 | B13 | 0.028 | 0.71 | 3.18
14 | B14 | 0.057 | 0.06 | 1.07
15 | B15 | 0.061 | 0.85 | 7.29
16 | B16 | 0.093 | 0.05 | 0.823
17 | B17 | 0.414 | 0.08 | 0.456
18 | B18 | 0.824 | > 1500 | 229
19 | B19 | 0.176 | 0.15 | 0.885
